Test results reported in patent publication EP4755449A2 (CHUGAI SEIYAKU KABUSHIKI KAISHA, dated 2026).
Like-named read-outs stand apart in the source and are kept apart here.

What was measured:
[1] = biological target: T1, Human GDF11 with Flag-tag on N-terminus (human, UniProt O95390 11-407); experiment: ELISA, biotinylated antigen on streptavidin plate
T1 construct: processing of the expressed protein not described; also called Flag-hGDF11; human latent GDF11
T1 sequence: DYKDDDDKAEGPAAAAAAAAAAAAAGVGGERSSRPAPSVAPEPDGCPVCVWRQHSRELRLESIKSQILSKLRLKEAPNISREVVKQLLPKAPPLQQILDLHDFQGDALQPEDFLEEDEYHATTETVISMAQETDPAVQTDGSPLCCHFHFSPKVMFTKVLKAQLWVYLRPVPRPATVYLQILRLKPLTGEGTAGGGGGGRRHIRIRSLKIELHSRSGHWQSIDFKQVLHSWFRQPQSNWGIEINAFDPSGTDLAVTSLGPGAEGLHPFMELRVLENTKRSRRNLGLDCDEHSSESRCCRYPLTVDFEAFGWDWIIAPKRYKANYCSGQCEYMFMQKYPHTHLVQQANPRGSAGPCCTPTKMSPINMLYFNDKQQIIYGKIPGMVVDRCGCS

mature myostatin = biological target: T2, mature myostatin (human (mature form 100% identical in …, UniProt O08689 268-376 (mouse entry))); experiment: ELISA, biotinylated antigen on streptavidin plate
T2 construct: biotinylated in the ELISA; also called myostatin mature form; active myostatin
T2 sequence: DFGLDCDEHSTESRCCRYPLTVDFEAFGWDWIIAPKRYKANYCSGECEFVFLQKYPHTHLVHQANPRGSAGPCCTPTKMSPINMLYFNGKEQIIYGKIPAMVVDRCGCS

human latent myostatin [2] = biological target: T3, human latent myostatin (human, UniProt O14793 25-266; O14793 267-375); experiment: SPR 37C pH7.4
T3 construct: non-covalent complex of two propeptides and the mature homodimer; also called human myostatin latent form
T3 sequence 1: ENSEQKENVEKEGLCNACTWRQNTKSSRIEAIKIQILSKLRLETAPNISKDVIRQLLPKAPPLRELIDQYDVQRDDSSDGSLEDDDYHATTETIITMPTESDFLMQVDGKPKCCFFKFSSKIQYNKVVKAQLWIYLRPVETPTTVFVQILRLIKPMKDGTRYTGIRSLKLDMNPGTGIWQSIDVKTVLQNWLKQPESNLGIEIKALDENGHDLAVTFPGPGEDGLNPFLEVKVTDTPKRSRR
T3 sequence 2: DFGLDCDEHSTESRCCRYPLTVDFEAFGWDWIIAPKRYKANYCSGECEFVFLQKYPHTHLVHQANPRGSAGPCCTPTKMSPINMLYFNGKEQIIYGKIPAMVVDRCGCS

mouse latent myostatin = biological target: T4, mouse latent myostatin (mouse, UniProt O08689 26-267; O08689 268-376); experiment: SPR 37C pH7.4
T4 sequence 1: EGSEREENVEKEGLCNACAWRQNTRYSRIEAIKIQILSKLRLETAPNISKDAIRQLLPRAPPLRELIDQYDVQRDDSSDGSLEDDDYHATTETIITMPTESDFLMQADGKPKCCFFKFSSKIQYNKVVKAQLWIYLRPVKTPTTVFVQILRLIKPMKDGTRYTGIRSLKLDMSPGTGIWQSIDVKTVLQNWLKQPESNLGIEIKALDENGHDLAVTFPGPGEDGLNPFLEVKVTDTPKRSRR
T4 sequence 2: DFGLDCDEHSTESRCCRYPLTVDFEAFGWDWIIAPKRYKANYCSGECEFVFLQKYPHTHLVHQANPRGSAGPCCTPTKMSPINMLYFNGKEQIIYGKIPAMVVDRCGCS

human latent myostatin [3] = biological target: T3, human latent myostatin; experiment: SPR 37C pH7.4; remark: listed apart in the source
[4] = biological target: T5, cynomolgus monkey latent myostatin (cynomolgus monkey, UniProt Q95J86 25-266; Q95J86 267-375, limits assumed); experiment: SPR 37C pH7.4
T5 construct: also called cyno latent myostatin
T5 sequence 1: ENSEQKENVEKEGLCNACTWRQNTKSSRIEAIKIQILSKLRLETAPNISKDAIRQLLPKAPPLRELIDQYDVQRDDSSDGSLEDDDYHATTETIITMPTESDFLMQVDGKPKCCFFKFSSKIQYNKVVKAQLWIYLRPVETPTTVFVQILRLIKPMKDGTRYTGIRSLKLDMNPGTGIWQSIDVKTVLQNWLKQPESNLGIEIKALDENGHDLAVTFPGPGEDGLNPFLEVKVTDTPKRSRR
T5 sequence 2: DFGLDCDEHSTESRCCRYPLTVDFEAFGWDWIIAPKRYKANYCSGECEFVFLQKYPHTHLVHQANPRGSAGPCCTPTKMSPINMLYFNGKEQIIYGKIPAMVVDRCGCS

human latent myostatin [5] = biological target: T3, human latent myostatin; experiment: SPR, dissociation phase at pH5.8
human latent myostatin [6] = biological target: T3, human latent myostatin; experiment: SPR, dissociation phase at pH5.8; remark: listed apart in the source
[7] = biological target: T6, human Fc gamma RIIIaV extracellular domain, His-tagged (human, UniProt P08637 17-208); experiment: SPR 25C
T6 construct: also called FcgRIIIaV

[8] = biological target: T7, human Fc gamma RIIaR extracellular domain, His-tagged (human, UniProt P12318 34-217); experiment: SPR 25C
T7 construct: also called FcgRIIaR; human Fc gamma RIIa (type R)
T7 chain: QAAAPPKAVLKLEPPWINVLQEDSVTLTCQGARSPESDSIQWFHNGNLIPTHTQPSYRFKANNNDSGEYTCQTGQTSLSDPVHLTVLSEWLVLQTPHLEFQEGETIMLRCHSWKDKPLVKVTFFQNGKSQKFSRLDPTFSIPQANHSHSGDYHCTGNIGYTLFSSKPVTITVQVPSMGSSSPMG

T6 sequence (P08637 17-208 F176V): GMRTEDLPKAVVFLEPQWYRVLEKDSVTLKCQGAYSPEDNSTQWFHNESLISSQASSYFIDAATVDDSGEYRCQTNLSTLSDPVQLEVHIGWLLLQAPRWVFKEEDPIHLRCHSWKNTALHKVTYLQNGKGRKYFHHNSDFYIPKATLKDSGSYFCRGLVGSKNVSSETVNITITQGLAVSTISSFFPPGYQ

B1: MS_MST1032Ha-G1m/MST1032La-k0MC (antibody, human IgG1, kappa, V domains shown)
VH: QSLEESGGRLVTPGGSLTVTCRVSGIDLSSYDISWVRQAPGKGLEWIGIISYAGSTYYASWAKGRFTISKTSTTVDLKMTSLTTEDTATYFCARGVPAYSTGGDLWGPGTLVTVSS
VL: AQVLTQTASSVSAAVGGTVTINCQSSQSVYDNNWLSWFQQKPGQPPKLLIYWASTLASGVPSRFKGSGSGTQFTLTISDLECDDAATYYCAGGYGGGLYAFGGGTKVEIKR
notes: rabbit/human chimeric; also called MST1032-G1m
binding result [1]: no binding
binding result (mature myostatin): no binding
Kd (human latent myostatin [2]): 0.0766 nM
koff (human latent myostatin [2]): 8.65e-05 s⁻¹
kon (human latent myostatin [2]): 1.13e+06 M⁻¹ s⁻¹
Kd (mouse latent myostatin): 0.0579 nM
koff (mouse latent myostatin): 8.16e-05 s⁻¹
kon (mouse latent myostatin): 1.41e+06 M⁻¹ s⁻¹
Kd (human latent myostatin [3]): 0.0766 nM
koff (human latent myostatin [3]): 8.65e-05 s⁻¹
kon (human latent myostatin [3]): 1.13e+06 M⁻¹ s⁻¹
Kd [4]: 0.0717 nM
koff [4]: 7.79e-05 s⁻¹
kon [4]: 1.09e+06 M⁻¹ s⁻¹

B2: Ab002 (M103205H001/M103202L000) (antibody, V domains shown)
VH: QVTLKESGPVLVKPTETLTLTCTVSGIDLSHYDISWVRQAPGKGLEWVGIISYAGSTYYASWAKGRLTISKDTSKNQVVLTMTNMDPVDTATYYCARGVPAYSTGGDLWGQGTLVTVSS
VL: DIVMTQSPATLSLSPGERATLSCQSSQSVYDNNWLSWFQQKPGQPPKLLIYWASTLASGVPSRFSGSGSGTDFTLTISSLQPEDAATYYCAGGYGGGLYAFGQGTKVEIKR
notes: variant of MS1032LO00-SG1
koff (human latent myostatin [5]): 0.00609 s⁻¹
fold faster dissociation rate at pH5.8 than Ab001 (human latent myostatin [6]): 200 fold

B3: GpH7-B3 G237D/GpL16-k0 (antibody, human IgG1, kappa)
heavy: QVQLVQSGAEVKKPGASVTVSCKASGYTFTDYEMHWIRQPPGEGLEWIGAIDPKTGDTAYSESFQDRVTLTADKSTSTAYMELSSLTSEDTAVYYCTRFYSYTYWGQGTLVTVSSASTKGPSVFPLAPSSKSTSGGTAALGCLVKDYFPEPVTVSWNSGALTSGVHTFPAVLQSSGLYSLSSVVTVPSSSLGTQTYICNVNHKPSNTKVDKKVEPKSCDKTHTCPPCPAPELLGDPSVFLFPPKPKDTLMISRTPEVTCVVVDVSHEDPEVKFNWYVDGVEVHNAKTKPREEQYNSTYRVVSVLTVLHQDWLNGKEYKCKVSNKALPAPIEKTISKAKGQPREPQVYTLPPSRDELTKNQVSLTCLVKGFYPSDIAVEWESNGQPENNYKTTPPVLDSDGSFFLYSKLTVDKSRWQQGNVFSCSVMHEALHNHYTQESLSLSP
light: DIVMTQSPLSLPVTPGEPASISCQASESLVHSNRNTYLHWYLQKPGQSPQLLIYKVSNRFSGVPDRFSGSGSGTDFTLKISRVEAEDVGVYYCSQNTHVPPTFGQGTKVEIERTVAAPSVFIFPPSDEQLKSGTASVVCLLNNFYPREAKVQWKVDNALQSGNSQESVTEQDSKDSTYSLSSTLTLSKADYEKHKVYACEVTHQGLSSPVTKSFNRGEC
notes: copies: 2 + 2
relative binding [7]: 0 parent B3=100
relative binding [8]: 0 parent B3=100
